We go through ten substances from patent US20230212549A1, “COMPOUNDS COMPRISING A […] LIGAND AND USE THEREOF” (priority 2021, published 2023).

Test [1] deals with delta (DOP) (h) (human) (UniProt P41143). As to the kind of experiment: reference compound of the radioligand binding assay (Ki Ref).
Test [2] deals with human fibroblast activation protein (FAP) on WI-38 fibroblasts (human) (UniProt Q12884). As to the kind of experiment: competitive FACS, WI-38 cells, Cy5-labeled peptide as competitor.
Test [3] addresses mu (MOP) (h) (human) (UniProt P35372). As to the kind of experiment: reference compound of the radioligand binding assay (Ki Ref).
Test [4] has as its target fibroblast activation protein (FAP) on FAP-expressing human WI-38 fibroblasts (human) (UniProt Q12884). As to the kind of experiment: competitive FACS, WI-38 cells, vs Cy5 tracer m3; D = pIC50 <=6.0.
Test [5] has as its target human fibroblast activating protein (FAP) on WI-38 fibroblasts (human) (UniProt Q12884). As to the kind of experiment: competitive FACS on WI-38 cells vs 3 nM Cy5-labeled peptide; pIC50 category D = ≤6.0.

Chain of delta (DOP) (h) (human) (P41143 whole entry, stated change not applied): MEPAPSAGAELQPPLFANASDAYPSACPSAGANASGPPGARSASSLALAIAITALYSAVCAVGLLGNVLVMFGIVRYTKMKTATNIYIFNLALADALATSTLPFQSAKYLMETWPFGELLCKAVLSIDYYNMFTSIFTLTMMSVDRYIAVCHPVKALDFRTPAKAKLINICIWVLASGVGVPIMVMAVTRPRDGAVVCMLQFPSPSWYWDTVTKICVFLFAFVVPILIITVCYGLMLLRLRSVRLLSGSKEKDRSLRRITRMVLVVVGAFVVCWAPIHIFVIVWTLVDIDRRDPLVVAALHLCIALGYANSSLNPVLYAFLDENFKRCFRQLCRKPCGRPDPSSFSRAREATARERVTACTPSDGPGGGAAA
Chain of mu (MOP) (h) (human) (P35372 whole entry): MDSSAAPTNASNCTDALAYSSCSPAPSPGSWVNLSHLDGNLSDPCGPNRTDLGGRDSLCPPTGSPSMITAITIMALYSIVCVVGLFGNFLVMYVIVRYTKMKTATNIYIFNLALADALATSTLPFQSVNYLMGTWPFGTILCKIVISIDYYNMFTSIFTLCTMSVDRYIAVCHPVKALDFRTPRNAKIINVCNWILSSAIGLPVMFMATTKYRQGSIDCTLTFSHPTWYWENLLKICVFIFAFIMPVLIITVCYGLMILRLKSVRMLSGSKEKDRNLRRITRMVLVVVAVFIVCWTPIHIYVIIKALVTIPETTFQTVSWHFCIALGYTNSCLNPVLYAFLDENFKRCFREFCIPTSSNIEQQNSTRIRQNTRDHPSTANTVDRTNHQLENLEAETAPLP

DPDPE (peptide) showed a Ki in test [1] of 1.2 nM.
“H-Ava-[Cys(3MeBn)-Pro-Pro-Thr-Gln-Phe-Cys]-NH2 (peptide)” showed a pIC50 Category (FACS) in test [2] below 6 pIC50.
Turning to DAMGO (peptide), in test [3], the Ki is 0.37 nM.
On to “Ac-Aad-[Cys(3MeBn)-Pro-Pro-Thr-Gln-Phe-Cys]-NH2 (peptide)”, for which the pIC50 Category (FACS) in test [2] was below 6 pIC50.
“H-Ahx-[Cys(3MeBn)-Pro-Pro-Thr-Gln-Phe-Cys]-NH2 (peptide)” came in with a pIC50 Category (FACS) in test [2] below 6 pIC50.
In turn, “DOTA-Ttds-Hci-[Cys(3MeBn)-Pro-Pro-Thr-Gln-Phe-Cys]-Bal-OH (peptide)” showed a pIC50 Category (FACS) in test [4] below 6 pIC50.
As for “N4Ac-Ttds-Glu(AGLU′)-Nle-[Cys-(3MeBn)-Pro-Pro-Thr-Gln-Phe-Cys]-OH (peptide)”, in test [2], the pIC50 Category (FACS) is below 6 pIC50.
In turn, “N4Ac-PPAc-Bal--Nle-[C(3MeBn)-PPTEFC]-OH (peptide)” showed a pIC50 in test [5] below 6 pic50.
Substance “H-Gab-[Cys(3MeBn)-Pro-Pro-Thr-Gln-Phe-Cys]-NH2 (peptide)” came in with a pIC50 Category (FACS) in test [2] below 6 pIC50.
On to “N4Ac-gGlu-Nle-[Cys-(3MeBn)-Pro-Pro-Thr-Gln-Phe-Cys]-OH (peptide)”, for which, in test [2], the pIC50 Category (FACS) is below 6 pIC50.
